# Experimental data as given in patent publication US11230581B2, “Peptides and combination of peptides for use in immunotherapy against ovarian cancer and other cancers” (Immatics Biotechnologies GmbH, priority 2015, dated 2022).
# Target: HLA-A*02:01 (Homo sapiens, UniProt P04439, D140Y/D185E/D98H/E176V/E277Q/G131W/G231S/I119V/I121R/I166T/I218V/L300P/L318F/N151K/N90K/P208A/P217A/Q86G/Q94H/R138H/R169H/T345S)
# Test: MHC binding assay (UV-ligand exchange, β2m ELISA, peptide exchange yield)
# Settings: binding of HLA-class I restricted peptides to HLA-A*02:01, UV-ligand exchange
# Text: Candidate peptides for T cell based therapies according to the present invention were further tested for their MHC binding capacity (affinity). The individual peptide-MHC complexes were produced by UV-ligand exchange, where a UV-sensitive peptide is cleaved upon UV-irradiation, and exchanged with the peptide of interest as analyzed. Only peptide candidates that can effectively bind and stabilize the peptide-receptive MHC molecules prevent dissociation of the MHC complexes. To determine the yield of the exchange reaction, an ELISA was performed based on the detection of the light chain (β2m) of stabilized MHC complexes. The assay was performed as generally described in Rodenko et al. (Rodenko et al., 2006).
# 96 well MAXISorp plates (NUNC) were coated over night with 2 ug/ml streptavidin in PBS at room temperature, washed 4× and blocked for 1h at 37° C. in 2% BSA containing blocking buffer. […] Peptide-MHC monomers of the UV-exchange reaction were diluted 100 fold in blocking buffer. Samples were incubated for 1 h at 37° C., washed four times, incubated with 2 ug/ml HRP conjugated anti-β2m for 1h at 37° C., washed again and detected with TMB solution that is stopped with […]. Absorption was measured at 450 nm. Candidate peptides that show a high exchange yield (preferably higher than 50%, most preferred higher than 75%) are generally preferred for a generation and production of antibodies or fragments thereof, and/or T cell receptors or fragments thereof, as they show sufficient avidity to the MHC molecules and prevent dissociation of the MHC complexes.
row,Substance,"Peptide exchange (MHC class I binding score, peptide exchange yield)"
1,1 (SLMEPPAVLLL; listed as Homo sapiens) [compound 1],“+++” (≥50 = +++)
2,2 (SLLEADPFL; listed as Homo sapiens) [compound 2],“+++” (≥50 = +++)
3,3 (SLASKLTTL; listed as Homo sapiens) [compound 3],“++++” (≥75% = ++++)
4,4 (GIMEHITKI; listed as Homo sapiens) [compound 4],“++++” (≥75% = ++++)
5,5 (HLTEVYPEL; listed as Homo sapiens) [compound 5],“+++” (≥50 = +++)
6,6 (VLVSDGVHSV; listed as Homo sapiens) [compound 6],“+++” (≥50 = +++)
7,7 (SLVGLLLYL; listed as Homo sapiens) [compound 7],“++++” (≥75% = ++++)
8,8 (FTLGNVVGMYL; listed as Homo sapiens) [compound 8],“++++” (≥75% = ++++)
9,9 (GAAKDLPGV; listed as Homo sapiens) [compound 9],“++” (≥20% = ++)
10,10 (FLATFPLAAV; listed as Homo sapiens) [compound 10],“++++” (≥75% = ++++)
11,11 (KIFEMLEGV; listed as Homo sapiens) [compound 11],“+++” (≥50 = +++)
12,12 (SLWPDPMEV; listed as Homo sapiens) [compound 12],“+++” (≥50 = +++)
13,13 (YLMDESLNL; listed as Homo sapiens) [compound 13],“+++” (≥50 = +++)
14,14 (AAYGGLNEKSFV; listed as Homo sapiens) [compound 14],“+++” (≥50 = +++)
15,15 (VLLTFKIFL; listed as Homo sapiens) [compound 15],“++” (≥20% = ++)
16,16 (VLFQGQASL; listed as Homo sapiens) [compound 16],“+++” (≥50 = +++)
17,17 (GLLPGDRLVSV; listed as Homo sapiens) [compound 17],“+++” (≥50 = +++)
18,18 (YLVAKLVEV; listed as Homo sapiens) [compound 18],“++” (≥20% = ++)
19,19 (FMVDNEAIYDI; listed as Homo sapiens) [compound 19],“++++” (≥75% = ++++)

row,Substance,"Peptide exchange (MHC class I binding score, peptide exchange yield)"
1,20 (RMIEYFIDV; listed as Homo sapiens) [compound 20],“+++” (≥50 = +++)
2,21 (VLDELDMEL; listed as Homo sapiens) [compound 21],“++” (≥20% = ++)
3,22 (IMEENPGIFAV; listed as Homo sapiens) [compound 22],“+++” (≥50 = +++)
4,23 (VLLDDIFAQL; listed as Homo sapiens) [compound 23],“+++” (≥50 = +++)
5,24 (SLSDGLEEV; listed as Homo sapiens) [compound 24],“++” (≥20% = ++)
6,25 (FLPDEPYIKV; listed as Homo sapiens) [compound 25],“+++” (≥50 = +++)
7,26 (ALLELAEEL; listed as Homo sapiens) [compound 26],“+++” (≥50 = +++)
8,27 (ILADIVISA; listed as Homo sapiens) [compound 27],“+++” (≥50 = +++)
9,28 (QLLDETSAITL; listed as Homo sapiens) [compound 28],“+++” (≥50 = +++)
10,29 (KMLGIPISNILMV; listed as Homo sapiens) [compound 29],“+++” (≥50 = +++)
11,30 (LILDWVPYI; listed as Homo sapiens) [compound 30],“+++” (≥50 = +++)
12,31 (YLAPELFVNV; listed as Homo sapiens) [compound 31],“++” (≥20% = ++)
13,32 (KLDDLTQDLTV; listed as Homo sapiens) [compound 32],“++” (≥20% = ++)
14,33 (VLLSLLEKV; listed as Homo sapiens) [compound 33],“++” (≥20% = ++)
15,34 (ILVEADSLWVV; listed as Homo sapiens) [compound 34],“+++” (≥50 = +++)
16,35 (KINDTIYEV; listed as Homo sapiens) [compound 35],“+++” (≥50 = +++)
17,36 (YVLEDLEVTV; listed as Homo sapiens) [compound 36],“++” (≥20% = ++)
18,38 (FLLEDDIHVS; listed as Homo sapiens) [compound 38],“+++” (≥50 = +++)
19,39 (SVAPNLPAV; listed as Homo sapiens) [compound 39],“+++” (≥50 = +++)

row,Substance,"Peptide exchange (MHC class I binding score, peptide exchange yield)"
1,40 (TLLVKVFSV; listed as Homo sapiens) [compound 40],“+++” (≥50 = +++)
2,41 (SLMPHIPGL; listed as Homo sapiens) [compound 41],“+++” (≥50 = +++)
3,42 (VLLQKIVSA; listed as Homo sapiens) [compound 42],“+++” (≥50 = +++)
4,43 (VLSSLEINI; listed as Homo sapiens) [compound 43],“++” (≥20% = ++)
5,44 (ILDPISSGFLL; listed as Homo sapiens) [compound 44],“++” (≥20% = ++)
6,45 (SLWQDIPDV; listed as Homo sapiens) [compound 45],“+++” (≥50 = +++)
7,46 (ILTEENIHL; listed as Homo sapiens) [compound 46],“+++” (≥50 = +++)
8,47 (ILLSVPLLVV; listed as Homo sapiens) [compound 47],“++” (≥20% = ++)
9,48 (ALAELYEDEV; listed as Homo sapiens) [compound 48],“+++” (≥50 = +++)
10,49 (YLPAVFEEV; listed as Homo sapiens) [compound 49],“+++” (≥50 = +++)
11,50 (SLSELEALM; listed as Homo sapiens) [compound 50],“+++” (≥50 = +++)
12,51 (LLPDLEFYV; listed as Homo sapiens) [compound 51],“++++” (≥75% = ++++)
13,52 (FLLAHGLGFLL; listed as Homo sapiens) [compound 52],“++++” (≥75% = ++++)
14,53 (KMIETDILQKV; listed as Homo sapiens) [compound 53],“++++” (≥75% = ++++)
15,54 (SLLEQGKEPWMV; listed as Homo sapiens) [compound 54],“+++” (≥50 = +++)
16,55 (SLLDLETLSL; listed as Homo sapiens) [compound 55],“++++” (≥75% = ++++)
17,56 (KLYEGIPVLL; listed as Homo sapiens) [compound 56],“++++” (≥75% = ++++)
18,57 (TLAELQPPVQL; listed as Homo sapiens) [compound 57],“+++” (≥50 = +++)
19,59 (IMEDIILTL; listed as Homo sapiens) [compound 59],“+++” (≥50 = +++)
